In patent US20050203281A1, “Production of recombinant fragments of muscle acetylcholine receptor and their use for ex vivo immunoadsorption of anti-ch receptor antibodies from myasthenic patients” (priority 2002, published 2005):
Entries after “also recorded” stand apart in the source; their conditions may differ.

What was measured:
[1] = molecular target: alpha1-210 fragment (Homo sapiens, UniProt P02708); conditions: read-out: concentration of unlabeled toxin giving 50% inhibition of 125I-alpha-BTX binding
[2] = tested on: anti-AChR antibodies from MG sera; experiment: Immunoadsorption of anti-AChR antibodies from MG sera by CNBr-Sepharose-immobilized subunit domains, RIA with human AChR from TE671 cells; assay type: binding; conditions: expressed in E. coli, refolded, similarly immobilized, same MG sera
[3] = tested on: anti-AChR antibodies from MG sera; experiment: as above; assay type: binding; conditions: for immunoadsorption of anti-AChR antibodies (in words): immobilized on Sepharose-CNBr
Protocol: FIG. 6 illustrates the immunoadsorption of anti-AChR antibodies from MG sera using immobilized alpha1-210 (black bars), gamma1-218 (grey bars) and epsilon1-219 (blank bars). Each subunit has been expressed in the yeast Pichia pastoris and the purified proteins have been covalently immobilized on CNBr-Sepharose beads. 64 MG positive sera were assayed for binding to human AChR after incubation with alpha1-210 immobilized on CNBr-Sepharose (together with BSA) or with just BSA immobilized on the same insoluble matrix. 2.5 ul of each MG patient serum were incubated with 0.2 ug immobilized alpha1-210 mixed with BSA or the same amount of BSA at […] for 2-3h (in a total volume of 0.16 ml) followed by centrifugation. Samples of the supernatants, each containing an amount corresponding to 0.9 ul of the treated MG sera were subsequently used in a typical RIA MG diagnostic test (Lindstrom et al., Meth. Enzymol. 74, 432460, 1981) with human AChR from TE671 cells. The percentage of immunoadsorption was estimated as described in the Example 3. Samples were processed in duplicates. Results shown (black bars) are an average of two experiments. Sera are sorted in decreasing percentage of immunoadsorption to immobilized alpha1-210.
FIG. 7 illustrates the immunoadsorption of anti-AChR antibodies from MG sera against immobilized alpha1-210 (black bars), gamma1-218 (gray bars) and a mix of both immobilized alpha1-210 and gamma1-218 (hatched bars). 9 MG sera were assayed for binding to human AChR after incubation of 20 fmoles anti-AChR MG antibodies with alpha1-210 (1 ug), or gamma1-218 (1 ug) or alpha1-210/gamma1-218 mix (containing 1 ug of each subunit) immobilized on CNBr-Sepharose. Incubation with just BSA immobilized to the same insoluble matrix served as a control to calculate the percent immunoadsorption against each of the subunits and the mix of both. After incubation with the Sepharose-immobilized proteins, sera were screened in a typical RIA experiment using TE671 AChR. The percentage of immunoadsorption was estimated as described in the Example 3. Samples were processed in duplicates. Results shown are an average of two experiments.
Immunoadsorption of MG autoantibodies by immobilized alpha1-210. 0.1 mg alpha1-210 mixed with 1.4 mg BSA was covalently bound to 0.5 gr CNBr-Sepharose according to manufacturer's protocol (Amersham). BSA was simply added to increase the protein/Sepharose ratio because the ratio of recombinant protein to Sepharose beads used would otherwise be too small; BSA is not necessary for larger scale experiments. In parallel, 1.5 mg BSA was bound to the same amount of CNBr-Sepharose under the same conditions as control. 2.5 ul MG patient sera were incubated with 0.2 ug immobilized alpha1-210 mixed with BSA, or the same amount of immobilized BSA alone, at 4° C. for 2-3 h (in a total volume of 0.16 ml) followed by centrifugation for bead precipitation. Samples of the supernatants, each containing an amount corresponding to 0.9 ul of these treated MG sera were subsequently used in a typical RIA MG diagnostic test (Lindstrom et al., Meth. Enzymol. 74, 432460, 1981) with human AChR from TE671 cells. The percentage of immunoadsorption was estimated as the ratio between the reduction in immunoprecipitated radiolabeled human AChR after incubation with alpha1-210 and the immunoprecipitated radiolabeled human AChR without incubation with alpha1-210 (incubation with plain immobilized BSA). 64 MG positive sera were assayed for binding to human AChR after incubation with immobilized alpha1-210 or BSA. […] We also tested immunoadsorption of the same set of MG sera by incubating 0.2 ug immobilized alpha1-210 with a fixed amount of anti-AChR antibodies (20 fmoles in variable volumes of MG sera depending on their titer) rather than a fixed serum volume.
Immunoadsorption of MG autoantibodies by immobilized gamma1-218 or epsilon1-219 domains. […]

[4] = tested on: anti-AChR antibodies from MG sera; experiment: Immunoadsorption of anti-AChR antibodies from MG sera by immobilized epsilon1-219, RIA with human AChR from TE671-epsilon cells; assay type: binding
Protocol: A subset of […] sera was also tested with gamma1-218 immobilized on CNBr-Sepharose (gray bars) and a subset of 22 sera was screened against epsilon1-219 immobilized on CNBr-Sepharose (blank bars) as described in the Example 3. Sera which have not been tested for immunoadsorption with epsilon1-219 are indicated in the X axis with open circles and sera which have not been tested on both gamma1-218 and epsilon1-219 are indicated with filled circles.
Immunoadsorption of MG autoantibodies by immobilized gamma1-218 or epsilon1-219 domains. 0.1 mg[…] of purified gamma1-218 or epsilon 1-219 mixed with 1.4 mg BSA was covalently immobilized on 1 gr of CNBr-Sepharose according to manufacturer's protocol. In parallel, an identical column was prepared with 1.5 mg BSA, to serve as control. Variable amounts of MG patient sera containing 20 fmoles of anti-AChR antibodies were incubated with 1 ug immobilized gamma1-218 mixed with BSA or the same amount of BSA at 4° C. for 2-3 h followed by centrifugation Samples of the supernatants, each containing an amount corresponding to 6 fmoles of preadsorbed anti-AChR antibody, were subsequently tested in a typical RIA MG diagnostic test as above. Sera which had been incubated with gamma1-218 were screened with the human AChR from TE671 cells (which contains alpha, beta, gamma and delta subunits) whereas sera immunoadsorbed with epsilon1-219 were screened with human AChR from TE671-epsilon cells(which contains alpha, beta, gamma and epsilon subunits) (Beeson et al., Neurology, 47,1552-1555, 1996). The percentage of immunoadsorption was estimated as above. Several MG sera from the group of the sera tested with immobilized alpha1-210 were assayed for binding to human AChR after incubation with immobilized gamma1-218 (43 sera) or epsilon1-219 (22 sera) or BSA only. Incubation with gamma1-218 led to a 29-56% reduction for 16% of the tested sera (7 sera out of 43), whereas it caused a 15%-30% reduction in another 28% of the tested sera (12 sera) (FIG. 6, gray bars). Other tested MG sera reached up to 68% immunoadsorption by gamma1-218 (not shown). […]

alpha-bungarotoxin [alpha-BTX]
IC50 [1]: 5 nM

B1: alpha1-208: extracellular alpha domain of human AChR expressed in E. coli and refolded according to Tsouloufis et al. (protein)
chain: SEHETRLVAKLFKDYSSVVRPVEDHRQVVEVTVGLQLIQLINVDEVNQIVTTNVRLKQQWVDYNLKWNPDDYGGVKKIHIPSEKIWRPDLVLYNNADGDFAIVKFTKVLLQYTGHITWTPPAIFKSYCEIIVTHFPFDEQNCSMKLGTWTYDGSVVAINPESDQPDLSNFMESGEWVIKESRGWKHSV
immunoadsorbing efficiency compared with yeast-expressed alpha domain [2]: significant but much lower
immunoadsorbing efficiency compared with yeast-expressed alpha domain ([2]; listed as alpha-subunit fragment expressed in E. coli): much lower level

B2: beta1-222: extracellular domain of human muscle AChR beta subunit, Pichia pastoris, FLAG and six-histidine tag (protein)
chain: DYKDDDDKMTPGALLMLLGALGAPLAPGVRGSEAEGRLREKLFSGYDSSVRPAREVGDRVRVSVGLILAQLISLNEKDEEMSTKVYLDLEWTDYRLSWDPAEHDGIDSLRITAESVWLPDVVLLNNNDGNFDVALDISVVVSSDGSVRWQPPGIYRSSCSIQVTYFPFDWQNCTMVFSSYSYDSSEVSLQTGLGPDGQGHQEIHIHEGTFIENGQWEIIHKPSRLIQPPG
modifications: glycosylated
immunoadsorption of anti-AChR antibodies (in words) [3]: lower but very significant percentages

B3: gamma1-218: extracellular domain of human muscle AChR gamma subunit, Pichia pastoris, FLAG and six-histidine tag (protein)
chain: DYKDDDDKRNQEERLLADLMQNYDPNLRPAERDSDVVNVSLKLTLTNLISLNEREEALTTNVWIEMQWCDYRLRWDPRDYEGLWVLRVPSTMVWRPDIVLENNVDGVFEVALYCNVLVSPDGCIYWLPPAIFRSACSISVTYFPFDWQNCSLIFQSQTYSTNEIDLQLSQEDGQTIEWIFIDPEAFTENGEWAIQHRPAKMLLDPAAPAQEAGHQKVVFYLLIQRK
modifications: glycosylated
reduction of anti-AChR antibodies, best-adsorbed sera ([3]; 16% of tested sera (7 of 43), 1 ug immobilized protein, 20 fmoles antibody): 29-56%
reduction of anti-AChR antibodies, intermediate sera ([3]; another 28% of tested sera (12 sera)): 15%-30%
immunoadsorption of anti-AChR antibodies (in words) [3]: lower but very significant percentages; also recorded: large fractions; also recorded: considerable amounts
maximal immunoadsorption in other tested MG sera ([3]; other tested MG sera (not shown)): up to 68%
immunoadsorption of serum no. 3 ([3]; serum no. 3, 1 ug of each immobilized subunit, 20 fmoles antibody): 22%

B4: epsilon1-219 (protein)
chain: DYKDDDDKKNEELRLYHHLFNNYDPGSRPVREPEDTVTISLKVTLTNLISLNEKEETLTTSVWIGIDWQDYRLNYSKDDFGGIETLRVPSELVWLPEIVLENNIDGQFGVAYDANVLVYEGGSVTWLPPAIYRSVCAVEVTYFPFDWQNCSLIFRSQTYNAEEVEFTFAVDNDGKTINKIDIDTEAYTENGEWAIDFCPGVIRRHHGGATDGPGETDVIYSLIIRRK
modifications: glycosylated
reduction of anti-AChR antibodies, best-adsorbed sera ([4]; 27% of screened sera (6/22)): 30-54%
reduction of anti-AChR antibodies, intermediate sera ([4]; another 45% of the sera (10/22)): 15%-30%
immunoadsorption of anti-AChR antibodies (in words) ([4]; immobilized on Sepharose-CNBr): lower but very significant percentages; also recorded: considerable amounts
